Read-outs that look alike come from different tables or passages of the source.
B1: IFA1 (antibody, human IgG2, kappa)
light: DIQMTQSPSSVSASVGDRVTITCRASQGIYSWLAWYQQKPGKAPNLLIYTASTLQSGVPSRFSGSGSGTDFTLTISSLQPEDFATYYCQQANIFPLTFGGGTKVEIKRTVAAPSVFIFPPSDEQLKSGTASVVCLLNNFYPREAKVQWKVDNALQSGNSQESVTEQDSKDSTYSLSSTLTLSKADYEKHKVYACEVTHQGLSSPVTKSFNRGECAEAAAKEAAAKAMSYNLLGFLQRSSNFQCQKLLWQLNGRLEYCLKDRMNFDIPEEIKQLQQFQKEDAALTIYEMLQNIFAIFRQDSSSTGWNETIVENLLANVYHQINHLKTVLEEKLEKEDFTRGKLMSSLHLKRYYGRILHYLKAKEYSHCAWTIVRVEILRNFYFINRLTGYLRN
heavy: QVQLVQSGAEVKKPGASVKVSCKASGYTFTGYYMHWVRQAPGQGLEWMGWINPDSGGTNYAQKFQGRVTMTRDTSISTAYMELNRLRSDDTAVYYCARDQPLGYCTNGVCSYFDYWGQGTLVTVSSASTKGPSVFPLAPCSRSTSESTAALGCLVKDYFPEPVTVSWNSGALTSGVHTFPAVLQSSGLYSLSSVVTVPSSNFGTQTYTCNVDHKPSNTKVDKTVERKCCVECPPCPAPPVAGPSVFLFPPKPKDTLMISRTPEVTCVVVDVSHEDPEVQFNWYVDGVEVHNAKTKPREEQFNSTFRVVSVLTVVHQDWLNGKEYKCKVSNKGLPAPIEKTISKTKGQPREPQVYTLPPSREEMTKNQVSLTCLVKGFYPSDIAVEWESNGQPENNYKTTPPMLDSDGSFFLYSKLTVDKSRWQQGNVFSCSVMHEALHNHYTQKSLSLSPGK
B2: IFA2 (antibody, human IgG2, kappa)
light: DIQMTQSPSSVSASVGDRVTITCRASQGIYSWLAWYQQKPGKAPNLLIYTASTLQSGVPSRFSGSGSGTDFTLTISSLQPEDFATYYCQQANIFPLTFGGGTKVEIKRTVAAPSVFIFPPSDEQLKSGTASVVCLLNNFYPREAKVQWKVDNALQSGNSQESVTEQDSKDSTYSLSSTLTLSKADYEKHKVYACEVTHQGLSSPVTKSFNRGECAEAAAKEAAAKAMSYNLLGFLQRSSNFQSQKLLWQLNGRLEYCLKDRMNFDIPEEIKQLQQFQKEDAALTIYEMLQNIFAIFRQDSSSTGWNETIVENLLANVYHQINHLKTVLEEKLEKEDFTRGKLMSSLHLKRYYGRILHYLKAKEYSHCAWTIVRVEILRNFYFINRLTGYLRN
heavy: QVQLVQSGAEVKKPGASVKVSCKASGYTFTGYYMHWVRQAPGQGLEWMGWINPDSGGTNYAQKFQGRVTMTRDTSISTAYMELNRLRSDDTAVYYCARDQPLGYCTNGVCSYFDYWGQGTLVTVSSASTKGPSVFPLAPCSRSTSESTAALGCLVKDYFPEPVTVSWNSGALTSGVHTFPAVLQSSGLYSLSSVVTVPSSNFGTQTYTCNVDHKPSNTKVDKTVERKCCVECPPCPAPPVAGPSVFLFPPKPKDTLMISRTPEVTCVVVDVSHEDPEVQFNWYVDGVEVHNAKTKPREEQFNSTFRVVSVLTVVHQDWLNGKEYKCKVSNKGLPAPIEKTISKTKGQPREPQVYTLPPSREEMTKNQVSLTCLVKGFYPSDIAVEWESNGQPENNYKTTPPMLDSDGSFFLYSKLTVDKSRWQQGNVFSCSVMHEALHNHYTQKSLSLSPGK
B3: IFA10 (antibody, human IgG2, kappa)
heavy: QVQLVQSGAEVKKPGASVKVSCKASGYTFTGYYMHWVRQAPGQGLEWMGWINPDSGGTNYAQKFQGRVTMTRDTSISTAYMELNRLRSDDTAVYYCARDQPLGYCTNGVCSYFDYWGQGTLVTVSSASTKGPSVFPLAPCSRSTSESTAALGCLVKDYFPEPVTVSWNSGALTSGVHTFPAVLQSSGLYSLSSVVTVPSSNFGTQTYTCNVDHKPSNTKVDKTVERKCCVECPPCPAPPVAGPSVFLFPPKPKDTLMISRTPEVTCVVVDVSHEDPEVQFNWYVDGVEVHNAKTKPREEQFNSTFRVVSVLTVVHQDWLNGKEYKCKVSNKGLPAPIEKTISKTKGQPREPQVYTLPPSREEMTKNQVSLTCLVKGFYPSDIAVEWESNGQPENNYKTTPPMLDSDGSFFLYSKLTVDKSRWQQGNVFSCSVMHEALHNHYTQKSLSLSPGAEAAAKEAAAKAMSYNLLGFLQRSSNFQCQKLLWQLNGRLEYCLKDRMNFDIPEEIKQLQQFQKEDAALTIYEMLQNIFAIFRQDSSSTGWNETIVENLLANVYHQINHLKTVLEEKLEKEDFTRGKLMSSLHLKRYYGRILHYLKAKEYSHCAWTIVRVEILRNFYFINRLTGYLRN
light: DIQMTQSPSSVSASVGDRVTITCRASQGIYSWLAWYQQKPGKAPNLLIYTASTLQSGVPSRFSGSGSGTDFTLTISSLQPEDFATYYCQQANIFPLTFGGGTKVEIKRTVAAPSVFIFPPSDEQLKSGTASVVCLLNNFYPREAKVQWKVDNALQSGNSQESVTEQDSKDSTYSLSSTLTLSKADYEKHKVYACEVTHQGLSSPVTKSFNRGEC
B4: IFA8 (antibody, human IgG2, kappa)
heavy: not shown
light: DIQMTQSPSSVSASVGDRVTITCRASQGIYSWLAWYQQKPGKAPNLLIYTASTLQSGVPSRFSGSGSGTDFTLTISSLQPEDFATYYCQQANIFPLTFGGGTKVEIKRTVAAPSVFIFPPSDEQLKSGTASVVCLLNNFYPREAKVQWKVDNALQSGNSQESVTEQDSKDSTYSLSSTLTLSKADYEKHKVYACEVTHQGLSSPVTKSFNRGEC
B5: IFA9 (antibody, human IgG2, kappa)
heavy: not shown
light: DIQMTQSPSSVSASVGDRVTITCRASQGIYSWLAWYQQKPGKAPNLLIYTASTLQSGVPSRFSGSGSGTDFTLTISSLQPEDFATYYCQQANIFPLTFGGGTKVEIKRTVAAPSVFIFPPSDEQLKSGTASVVCLLNNFYPREAKVQWKVDNALQSGNSQESVTEQDSKDSTYSLSSTLTLSKADYEKHKVYACEVTHQGLSSPVTKSFNRGEC
B6: IFA49 (antibody, human IgG2, kappa)
heavy: not shown
light: DIQMTQSPSSVSASVGDRVTITCRASQGIYSWLAWYQQKPGKAPNLLIYTASTLQSGVPSRFSGSGSGTDFTLTISSLQPEDFATYYCQQANIFPLTFGGGTKVEIKRTVAAPSVFIFPPSDEQLKSGTASVVCLLNNFYPREAKVQWKVDNALQSGNSQESVTEQDSKDSTYSLSSTLTLSKADYEKHKVYACEVTHQGLSSPVTKSFNRGEC
B7: IFA11 (antibody, human IgG2, kappa)
heavy: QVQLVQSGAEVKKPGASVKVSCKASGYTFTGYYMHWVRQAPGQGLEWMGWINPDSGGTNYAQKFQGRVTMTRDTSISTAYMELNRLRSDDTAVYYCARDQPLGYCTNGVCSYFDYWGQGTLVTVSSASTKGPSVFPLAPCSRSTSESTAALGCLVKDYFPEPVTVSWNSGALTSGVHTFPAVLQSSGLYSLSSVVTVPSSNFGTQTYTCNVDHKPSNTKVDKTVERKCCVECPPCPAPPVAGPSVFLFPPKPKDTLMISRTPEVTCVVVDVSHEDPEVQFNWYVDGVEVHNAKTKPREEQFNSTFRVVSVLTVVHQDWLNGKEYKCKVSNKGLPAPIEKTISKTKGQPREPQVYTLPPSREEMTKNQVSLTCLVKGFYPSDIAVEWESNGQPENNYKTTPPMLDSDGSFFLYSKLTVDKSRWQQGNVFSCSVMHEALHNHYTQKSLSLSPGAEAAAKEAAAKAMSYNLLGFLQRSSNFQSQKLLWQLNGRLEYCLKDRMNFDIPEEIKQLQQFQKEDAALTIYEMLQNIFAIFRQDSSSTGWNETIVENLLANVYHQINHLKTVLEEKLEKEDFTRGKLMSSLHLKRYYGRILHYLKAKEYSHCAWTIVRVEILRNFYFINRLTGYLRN
light: DIQMTQSPSSVSASVGDRVTITCRASQGIYSWLAWYQQKPGKAPNLLIYTASTLQSGVPSRFSGSGSGTDFTLTISSLQPEDFATYYCQQANIFPLTFGGGTKVEIKRTVAAPSVFIFPPSDEQLKSGTASVVCLLNNFYPREAKVQWKVDNALQSGNSQESVTEQDSKDSTYSLSSTLTLSKADYEKHKVYACEVTHQGLSSPVTKSFNRGEC
B8: IFA106 (antibody, human IgG2, kappa)
heavy: QVQLVESGGGVVQPGKSLRLSCAASGFTFSSNGIHWVRQAPGKGLEWVAVIWSDGSNKFYADSVKGRFTISRDNSKNTLYLQMNSLRAEDTAVYYCARASGSGSYYNFFDYWGQGTLVTVSSASTKGPSVFPLAPCSRSTSESTAALGCLVKDYFPEPVTVSWNSGALTSGVHTFPAVLQSSGLYSLSSVVTVPSSNFGTQTYTCNVDHKPSNTKVDKTVERKCCVECPPCPAPPVAGPSVFLFPPKPKDTLMISRTPEVTCVVVDVSHEDPEVQFNWYVDGVEVHNAKTKPREEQFNSTFRVVSVLTVVHQDWLNGKEYKCKVSNKGLPAPIEKTISKTKGQPREPQVYTLPPSREEMTKNQVSLTCLVKGFYPSDIAVEWESNGQPENNYKTTPPMLDSDGSFFLYSKLTVDKSRWQQGNVFSCSVMHEALHNHYTQKSLSLSPGPAPASYNLLGFLQRSSNFQCQKLLWQLNGRLEYCLKDRMNFDIPEEIKQLQQFQKEDAALTIYEMLQNIFAIFRQDSSSTGWNETIVENLLANVYHQINHLKTVLEEKLEKEDFTRGKLMSSLHLKRYYGRILHYLKAKEYSHCAWTIVRVEILRNFYFINRLTGYLRN
light: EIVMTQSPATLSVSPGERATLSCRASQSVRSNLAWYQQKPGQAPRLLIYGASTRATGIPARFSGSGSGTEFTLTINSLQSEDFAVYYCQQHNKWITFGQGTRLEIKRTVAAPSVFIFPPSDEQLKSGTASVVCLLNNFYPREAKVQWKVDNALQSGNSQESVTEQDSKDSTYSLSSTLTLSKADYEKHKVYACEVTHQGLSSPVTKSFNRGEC
B9: IFA107 (antibody, human IgG2, kappa)
heavy: QVQLVESGGGVVQPGKSLRLSCAASGFTFSSNGIHWVRQAPGKGLEWVAVIWSDGSNKFYADSVKGRFTISRDNSKNTLYLQMNSLRAEDTAVYYCARASGSGSYYNFFDYWGQGTLVTVSSASTKGPSVFPLAPCSRSTSESTAALGCLVKDYFPEPVTVSWNSGALTSGVHTFPAVLQSSGLYSLSSVVTVPSSNFGTQTYTCNVDHKPSNTKVDKTVERKCCVECPPCPAPPVAGPSVFLFPPKPKDTLMISRTPEVTCVVVDVSHEDPEVQFNWYVDGVEVHNAKTKPREEQFNSTFRVVSVLTVVHQDWLNGKEYKCKVSNKGLPAPIEKTISKTKGQPREPQVYTLPPSREEMTKNQVSLTCLVKGFYPSDIAVEWESNGQPENNYKTTPPMLDSDGSFFLYSKLTVDKSRWQQGNVFSCSVMHEALHNHYTQKSLSLSPGPAPASYNLLGFLQRSSNFQSQKLLWQLNGRLEYCLKDRMNFDIPEEIKQLQQFQKEDAALTIYEMLQNIFAIFRQDSSSTGWNETIVENLLANVYHQINHLKTVLEEKLEKEDFTRGKLMSSLHLKRYYGRILHYLKAKEYSHCAWTIVRVEILRNFYFINRLTGYLRN
light: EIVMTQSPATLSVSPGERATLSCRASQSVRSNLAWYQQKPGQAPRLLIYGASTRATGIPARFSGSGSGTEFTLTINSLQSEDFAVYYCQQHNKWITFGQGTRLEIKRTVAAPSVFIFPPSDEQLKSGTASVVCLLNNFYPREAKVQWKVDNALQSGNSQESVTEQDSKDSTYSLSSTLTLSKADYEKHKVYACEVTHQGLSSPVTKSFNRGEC
B10: IFA12 (antibody, human IgG2, kappa)
light: DIQMTQSPSSVSASVGDRVTITCRASQGIYSWLAWYQQKPGKAPNLLIYTASTLQSGVPSRFSGSGSGTDFTLTISSLQPEDFATYYCQQANIFPLTFGGGTKVEIKRTVAAPSVFIFPPSDEQLKSGTASVVCLLNNFYPREAKVQWKVDNALQSGNSQESVTEQDSKDSTYSLSSTLTLSKADYEKHKVYACEVTHQGLSSPVTKSFNRGECPAPAMSYNLLGFLQRSSNFQCQKLLWQLNGRLEYCLKDRMNFDIPEEIKQLQQFQKEDAALTIYEMLQNIFAIFRQDSSSTGWNETIVENLLANVYHQINHLKTVLEEKLEKEDFTRGKLMSSLHLKRYYGRILHYLKAKEYSHCAWTIVRVEILRNFYFINRLTGYLRN
heavy: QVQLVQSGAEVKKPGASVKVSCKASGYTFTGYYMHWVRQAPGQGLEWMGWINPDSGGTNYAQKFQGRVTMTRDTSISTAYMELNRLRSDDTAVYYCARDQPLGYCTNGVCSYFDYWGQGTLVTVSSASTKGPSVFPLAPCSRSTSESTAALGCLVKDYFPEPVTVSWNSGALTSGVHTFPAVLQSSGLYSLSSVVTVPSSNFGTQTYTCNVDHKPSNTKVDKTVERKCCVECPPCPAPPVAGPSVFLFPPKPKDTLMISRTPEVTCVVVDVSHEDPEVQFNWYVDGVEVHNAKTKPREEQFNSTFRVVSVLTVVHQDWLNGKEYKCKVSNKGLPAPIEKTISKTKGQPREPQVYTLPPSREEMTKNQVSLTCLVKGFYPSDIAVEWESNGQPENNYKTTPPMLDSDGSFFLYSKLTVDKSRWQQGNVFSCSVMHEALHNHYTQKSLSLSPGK
B11: IFA13 (antibody, human IgG2, kappa)
light: DIQMTQSPSSVSASVGDRVTITCRASQGIYSWLAWYQQKPGKAPNLLIYTASTLQSGVPSRFSGSGSGTDFTLTISSLQPEDFATYYCQQANIFPLTFGGGTKVEIKRTVAAPSVFIFPPSDEQLKSGTASVVCLLNNFYPREAKVQWKVDNALQSGNSQESVTEQDSKDSTYSLSSTLTLSKADYEKHKVYACEVTHQGLSSPVTKSFNRGECPAPAMSYNLLGFLQRSSNFQSQKLLWQLNGRLEYCLKDRMNFDIPEEIKQLQQFQKEDAALTIYEMLQNIFAIFRQDSSSTGWNETIVENLLANVYHQINHLKTVLEEKLEKEDFTRGKLMSSLHLKRYYGRILHYLKAKEYSHCAWTIVRVEILRNFYFINRLTGYLRN
heavy: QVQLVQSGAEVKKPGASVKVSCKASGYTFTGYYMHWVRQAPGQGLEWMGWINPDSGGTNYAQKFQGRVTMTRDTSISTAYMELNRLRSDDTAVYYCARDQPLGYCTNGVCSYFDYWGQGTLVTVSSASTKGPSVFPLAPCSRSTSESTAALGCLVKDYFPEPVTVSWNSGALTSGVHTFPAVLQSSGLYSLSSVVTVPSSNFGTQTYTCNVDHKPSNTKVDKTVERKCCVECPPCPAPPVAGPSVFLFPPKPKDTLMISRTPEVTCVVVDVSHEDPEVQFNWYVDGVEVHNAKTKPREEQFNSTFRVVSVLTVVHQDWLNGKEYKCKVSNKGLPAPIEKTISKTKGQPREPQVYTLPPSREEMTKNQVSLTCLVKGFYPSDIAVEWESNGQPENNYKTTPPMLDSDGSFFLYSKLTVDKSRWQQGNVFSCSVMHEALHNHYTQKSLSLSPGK
B12: IFA20 (antibody, human IgG2, kappa)
light: DIQMTQSPSSVSASVGDRVTITCRASQGIYSWLAWYQQKPGKAPNLLIYTASTLQSGVPSRFSGSGSGTDFTLTISSLQPEDFATYYCQQANIFPLTFGGGTKVEIKRTVAAPSVFIFPPSDEQLKSGTASVVCLLNNFYPREAKVQWKVDNALQSGNSQESVTEQDSKDSTYSLSSTLTLSKADYEKHKVYACEVTHQGLSSPVTKSFNRGECAEAAAKEAAAKAAEAAAKEAAAKAMSYNLLGFLQRSSNFQSQKLLWQLNGRLEYCLKDRMNFDIPEEIKQLQQFQKEDAALTIYEMLQNIFAIFRQDSSSTGWNETIVENLLANVYHQINHLKTVLEEKLEKEDFTRGKLMSSLHLKRYYGRILHYLKAKEYSHCAWTIVRVEILRNFYFINRLTGYLRN
heavy: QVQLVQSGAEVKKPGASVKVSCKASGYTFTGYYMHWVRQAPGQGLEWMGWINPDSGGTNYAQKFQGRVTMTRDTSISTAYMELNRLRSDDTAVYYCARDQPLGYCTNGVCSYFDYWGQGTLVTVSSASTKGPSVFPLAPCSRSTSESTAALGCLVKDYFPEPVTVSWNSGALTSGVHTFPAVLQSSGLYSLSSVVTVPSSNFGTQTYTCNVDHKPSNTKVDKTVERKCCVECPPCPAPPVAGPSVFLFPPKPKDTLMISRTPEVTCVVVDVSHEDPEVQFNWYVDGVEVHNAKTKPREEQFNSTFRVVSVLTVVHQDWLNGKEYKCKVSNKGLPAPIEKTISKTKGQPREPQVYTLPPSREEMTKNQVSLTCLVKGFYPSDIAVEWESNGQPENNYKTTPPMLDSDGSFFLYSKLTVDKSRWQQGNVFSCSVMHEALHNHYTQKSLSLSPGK
B13: IFA19 (antibody, human IgG2, kappa)
light: DIQMTQSPSSVSASVGDRVTITCRASQGIYSWLAWYQQKPGKAPNLLIYTASTLQSGVPSRFSGSGSGTDFTLTISSLQPEDFATYYCQQANIFPLTFGGGTKVEIKRTVAAPSVFIFPPSDEQLKSGTASVVCLLNNFYPREAKVQWKVDNALQSGNSQESVTEQDSKDSTYSLSSTLTLSKADYEKHKVYACEVTHQGLSSPVTKSFNRGECSGGTSGSTSGTGSMSYNLLGFLQRSSNFQSQKLLWQLNGRLEYCLKDRMNFDIPEEIKQLQQFQKEDAALTIYEMLQNIFAIFRQDSSSTGWNETIVENLLANVYHQINHLKTVLEEKLEKEDFTRGKLMSSLHLKRYYGRILHYLKAKEYSHCAWTIVRVEILRNFYFINRLTGYLRN
heavy: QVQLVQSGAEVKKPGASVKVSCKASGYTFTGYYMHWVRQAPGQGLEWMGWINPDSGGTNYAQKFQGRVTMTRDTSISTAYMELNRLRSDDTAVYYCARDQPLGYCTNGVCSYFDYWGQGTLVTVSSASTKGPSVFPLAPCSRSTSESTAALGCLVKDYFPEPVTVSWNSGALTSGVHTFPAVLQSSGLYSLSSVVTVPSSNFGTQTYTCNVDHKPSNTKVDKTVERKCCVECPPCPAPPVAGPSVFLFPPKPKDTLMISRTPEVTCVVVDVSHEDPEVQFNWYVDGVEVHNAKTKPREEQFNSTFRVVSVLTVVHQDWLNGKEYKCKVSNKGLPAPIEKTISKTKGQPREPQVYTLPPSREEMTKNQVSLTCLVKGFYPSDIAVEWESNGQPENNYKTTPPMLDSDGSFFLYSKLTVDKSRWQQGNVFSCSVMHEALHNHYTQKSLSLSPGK

Columns and labels:
Experiment in all cases: cell-based or functional assay
[1] = molecular target: human IFN receptor on HEK-Blue IFN-α/β cells (human)
[2] = molecular target: T1, human CD40 (human, UniProt P25942 21-277)
T1 sequence (P25942 21-277): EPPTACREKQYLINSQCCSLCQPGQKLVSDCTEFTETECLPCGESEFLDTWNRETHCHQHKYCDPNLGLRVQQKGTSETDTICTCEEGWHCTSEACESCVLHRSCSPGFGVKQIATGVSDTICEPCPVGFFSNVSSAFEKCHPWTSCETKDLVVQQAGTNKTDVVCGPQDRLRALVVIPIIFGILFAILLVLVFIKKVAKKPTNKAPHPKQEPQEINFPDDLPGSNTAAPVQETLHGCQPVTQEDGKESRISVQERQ

[3] = molecular target: human IFN receptor on HEK-Blue IFN-α/β cells (human); remark: listed apart in the source
[4] = molecular target: T1, human CD40; remark: listed apart in the source

Binder | IFNβ EC50 (HEK-Blue IFN-α/β reporter cells) [1] | CD40 EC50 (HEK-Blue CD40L reporter cells) [2] | IFNε EC50 (HEK-Blue IFN-α/β reporter cells) [1] | IFNβ EC50 (HEK-Blue IFN-α/β reporter cells) [3] | CD40 EC50 (HEK-Blue CD40L reporter cells) [4]
B1 | 0.00164 µg/mL | 0.0741 µg/mL | – | – | –
B2 | 0.00014 µg/mL | 0.111 µg/mL | – | – | –
B3 | 0.0045 µg/mL | 0.0265 µg/mL | – | – | –
B4 | 0.0029 µg/mL | 0.0397 µg/mL | – | – | –
B5 | 0.0007 µg/mL | 0.0426 µg/mL | – | – | –
B6 | – | 0.0658 µg/mL | 0.0782 µg/mL | – | –
B7 | 0.00178 µg/mL | 0.0428 µg/mL | – | – | –
B8 | – | – | – | 0.0103 µg/mL | 0.191 µg/mL
B9 | – | – | – | 0.00203 µg/mL | 0.142 µg/mL
B10 | 0.00364 µg/mL | 0.105 µg/mL | – | – | –
B11 | 0.0007 µg/mL | 0.192 µg/mL | – | – | –
B12 | 0.00234 µg/mL | 0.182 µg/mL | – | – | –
B13 | 0.0013 µg/mL | 0.11 µg/mL | – | – | –

Reference: patent US20230028476A1 (EVOTEC INTERNATIONAL, published 2023)
